# Measured values taken from EP1514558A1.
# Target: recombinant MARK2, expressed in E. coli (Rattus norvegicus (Rat)) (UniProt O08679)
# Assay: cell-based or functional assay
# recombinant MARK2, expressed in E. coli (Rattus norvegicus (Rat)), sequence (O08679 1-722, tags left off): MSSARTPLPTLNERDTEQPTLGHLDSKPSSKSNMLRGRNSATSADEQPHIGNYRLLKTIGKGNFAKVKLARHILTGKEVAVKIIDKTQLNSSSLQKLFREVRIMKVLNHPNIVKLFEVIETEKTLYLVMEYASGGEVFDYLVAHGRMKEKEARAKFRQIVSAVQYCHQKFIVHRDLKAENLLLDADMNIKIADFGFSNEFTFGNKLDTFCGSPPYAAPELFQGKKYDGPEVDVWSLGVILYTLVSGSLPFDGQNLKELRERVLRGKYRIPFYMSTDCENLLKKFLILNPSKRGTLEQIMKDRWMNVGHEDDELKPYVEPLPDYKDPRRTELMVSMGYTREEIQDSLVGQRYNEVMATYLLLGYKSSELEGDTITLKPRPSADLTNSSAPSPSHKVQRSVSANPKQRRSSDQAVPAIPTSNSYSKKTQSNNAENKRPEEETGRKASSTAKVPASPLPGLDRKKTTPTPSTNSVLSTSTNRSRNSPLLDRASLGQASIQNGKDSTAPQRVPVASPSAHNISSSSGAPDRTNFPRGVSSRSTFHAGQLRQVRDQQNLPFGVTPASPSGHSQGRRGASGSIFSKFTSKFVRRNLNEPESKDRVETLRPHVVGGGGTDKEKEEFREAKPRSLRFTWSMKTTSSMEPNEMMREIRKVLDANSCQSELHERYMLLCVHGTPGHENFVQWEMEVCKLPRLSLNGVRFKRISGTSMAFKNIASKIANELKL
activation of MARK2 by fraction 14,activation of MARK2 (Fig. 4B),Substance
10 fold,,MARK-activating factor (MAF) purified from porcine brain
,10 fold,"recombinant MARKK (His10-tagged at the N-terminus), expressed in Sf9 cells (from UniProt O88664 1-1001) (enzyme)"
